The values that follow come from PMC2119692.

A value given as a limit tells only on which side of the number the result lay.

Assay [1] deals with calmodulin targets in the leading lamellae (region of transverse fibers) of Swiss 3T3 fibroblasts during wound healing. Briefly: steady state fluorescence anisotropy imaging microscopy.
For assay [2], the target named is target proteins of calmodulin in serum-deprived and serum-stimulated Swiss 3T3 fibroblasts. The assay is described as above.

Take “FITC-calmodulin (from UniProt P62157 1-149) (natural protein)”: the results for the maximum fraction bound (fB) in assay [1] and in assay [2] were 50% and 95%, respectively. In assay [2], this substance displayed a fraction bound (fB) of less than 10%.
